Measurements from the supplement of paper PMC10724198.
± gives the standard deviation of the averaged measurements.

System: Saccharomyces cerevisiae
Test: protein stability index of tFT-peptide fusion (C-terminal peptide) (PSI (0-1 scale)); higher = more stable (slower turnover)
Conditions: genetic background: wild type; temperature: 30 C
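Further: PSI is a weighted mean of sequencing reads over stability bins, variants kept only with over 10 reads, mCherry proximal and sfGFP distal, peptide attached via GGGS linker.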

Sequence | protein stability index
RKNDSKKNCVKE | 0.705 ± 0.089
RKPTSFFSRIVN | 0.611 ± 0.026
RKRPTQAMIFNI | 0.5568 ± 0.0013
RKSERIKNKNGR | 0.715 ± 0.037
RKSKRLDQSCTR | 0.703 ± 0.035
RKTGTGETRTRR | 0.691 ± 0.015
RKVKGKKRYTEG | 0.662 ± 0.058
RKYKNKRSKKEK | 0.755 ± 0.1
RLCLFPVAPLLS | 0.599 ± 0.03
RLCLLVVPLLPP | 0.665 ± 0.055
RLCPWNLSDADL | 0.71 ± 0.0091
RLDRGLHIKAIT | 0.704 ± 0.014
RLDVGAGGCLGG | 0.716 ± 0.021
RLFIALFPPFYL | 0.64 ± 0.05
RLGAEYNWVNLS | 0.6362 ± 0.0026
RLGALNHPLAAP | 0.7183 ± 0.0057
RLGARGGSRGRP | 0.736 ± 0.012
RLGFCGLGHRCE | 0.677 ± 0.033
RLGLRWSPHSSP | 0.707 ± 0.01
RLGLSIASAPCL | 0.693 ± 0.062
RLIEDREWLGSR | 0.721 ± 0.014
RLIIRYESYTSD | 0.709 ± 0.013
RLLFLPPPPPPP | 0.654 ± 0.082

Sequence | protein stability index
RLLLPSTLLPPR | 0.761 ± 0.13
RLLLSRCSFLPT | 0.663 ± 0.03
RLLPLPRRTPPL | 0.852 ± 0.11
RLLPPSLAQRNN | 0.5909 ± 0.0011
RLLRDFQSVGGD | 0.6498 ± 0.0014
RLPAPPPHPPPP | 0.7037 ± 0.0013
RLPPGATPYPPR | 0.711 ± 0.013
RLPPRPPPRPPT | 0.6514 ± 0.006
RLPRSPPLPSCR | 0.726 ± 0.016
RLPSAPPRQPTH | 0.667 ± 0.061
RLRPPPRTLPTP | 0.722 ± 0.011
RLRQTLPTWVTT | 0.665 ± 0.015
RLRSSTAAAAIV | 0.713 ± 0.082
RLRSWLGIALFL | 0.642 ± 0.0067
RLSSLRAFSLRS | 0.721 ± 0.026
RLSSLSPFLVLS | 0.589 ± 0.0084
RLTALVYFISPL | 0.597 ± 0.017
RLVFDTGPPFIN | 0.657 ± 0.042
RLWFPSARLRFT | 0.678 ± 0.06
RMGAEDTGCRRP | 0.657 ± 0.062
RMINHGNKAKFS | 0.662 ± 0.016
RMIQKFGLGVVV | 0.5613 ± 0.0047
RMNSCVLLDGFA | 0.687 ± 0.03

Sequence | protein stability index
RNFAPPFLPSPH | 0.711 ± 0.066
RNIKIGKYMKRI | 0.729 ± 0.034
RNIQKLNKIKKK | 0.753 ± 0.15
RNNRQAREKKKQ | 0.701 ± 0.15
RNPLDGDSGSRG | 0.699 ± 0.0076
RNRDKKGDMILK | 0.691 ± 0.0086
RNRRKTLMETRS | 0.695 ± 0.082
RNSDPRLGGNTF | 0.687 ± 0.052
RNTRAPTRNVPE | 0.674 ± 0.028
RNTYKKREKNKK | 0.7363 ± 0.0025
RNWCHGTVLNRL | 0.736 ± 0.13
RPASPASSPFFP | 0.70509 ± 0.00065
RPCSVPFSNTSP | 0.666 ± 0.0067
RPEKGLESGQRV | 0.69 ± 0.064
RPLALHSYPCSP | 0.6771 ± 0.00072
RPLPASTTLCVL | 0.689 ± 0.11
RPLSSPPTRSRA | 0.751 ± 0.038
RPLVSRLPIFIR | 0.506 ± 0.014
RPPCLRPPPPPL | 0.727 ± 0.012
RPPIGTLCSINF | 0.614 ± 0.13
RPPNPPPALPPL | 0.701 ± 0.056
RPPPLPPRPSPP | 0.752 ± 0.12
RPPPPPPPPPSP | 0.723 ± 0.089

Sequence | protein stability index
RPPSPILPSSSP | 0.714 ± 0.077
RPPVPSLLPEPT | 0.6313 ± 0.0043
RPRPPLASPSPP | 0.7005 ± 0.0013
RPRYITQGLPLL | 0.738 ± 0.026
RPSGFVGSDVRV | 0.629 ± 0.071
RPSNPPTKSQPS | 0.665 ± 0.019
RPSPPALPRFLL | 0.703 ± 0.0073
RPSTHPPATPPR | 0.695 ± 0.07
RPSTSRKVKIDV | 0.663 ± 0.066
RPTRSLYLLPLI | 0.699 ± 0.019
RQESYYLYHTAR | 0.717 ± 0.032
RQLPPRAPAARG | 0.661 ± 0.028
RQNPRLPPPFQP | 0.731 ± 0.052
RQTNEHNNQNER | 0.741 ± 0.082
RRCCLDPGGLLS | 0.607 ± 0.0078
RRCGETTEQTVR | 0.71 ± 0.059
RRCRPPTRRTKE | 0.587 ± 0.053
RRCSCGFLCIDS | 0.672 ± 0.14
RRDELINVVKRT | 0.717 ± 0.072
RRDIPLSPVAFS | 0.702 ± 0.031
RREKGEARGRGG | 0.618 ± 0.013
RREKRPMKKGGR | 0.6126 ± 0.002
RRERQNEKMTYH | 0.656 ± 0.078

Sequence | protein stability index
RRESQRRYRRML | 0.714 ± 0.059
RRFLRRISAFAS | 0.558 ± 0.06
RRFQYLTENYQK | 0.6208 ± 0.0047
RRGAGCAAVGLG | 0.618 ± 0.024
RRGRGGGRRVDA | 0.731 ± 0.021
RRKGRLTAGWGR | 0.713 ± 0.025
RRLFVMDKRKRK | 0.716 ± 0.033
RRLSVPFSPSAL | 0.733 ± 0.032
RRMHLNMKEREL | 0.896 ± 0.054
RRMSQQCLPRQR | 0.739 ± 0.047
RRNGVVGRLGWV | 0.7 ± 0.051
RRPCTSSHAKAP | 0.692 ± 0.021
RRPQPPHKTAMP | 0.701 ± 0.078
RRRQAEEDERNG | 0.658 ± 0.07
RRRTDDSTPGRA | 0.686 ± 0.025
RRSSLGIYWIYS | 0.61 ± 0.037
RRTTGLGWSGRP | 0.644 ± 0.025
RRVNDLGPPMRN | 0.779 ± 0.092
RRVRRRRTGGAW | 0.669 ± 0.005
RRVVIVSGWGWG | 0.591 ± 0.064
RRWSPPGLGCIE | 0.735 ± 0.019
RSETGYGTSWGA | 0.627 ± 0.026
RSFRCWVQGYCG | 0.654 ± 0.044

Sequence | protein stability index
RSGLARPSPLTR | 0.67445 ± 0.00024
RSGVSCPRVDDR | 0.643 ± 0.05
RSGWRLLHLTTL | 0.613 ± 0.013
RSHPTPQAHPSA | 0.728 ± 0.051
RSKPIQAIPNPV | 0.69 ± 0.03
RSLRLPPRTPLP | 0.652 ± 0.04
RSLVAATLSSLG | 0.735 ± 0.045
RSPNSSPPPSIS | 0.648 ± 0.014
RSPPHSNLAHCI | 0.684 ± 0.037
RSPPPVPELTRL | 0.7042 ± 0.0051
RSPYSSLHNPLC | 0.706 ± 0.016
RSRSIPTTLCLP | 0.655 ± 0.026
RSSLAVSTKVER | 0.639 ± 0.02
RSSPPPRHDPSP | 0.696 ± 0.088
RSSRGGFAFVYR | 0.676 ± 0.03
RSSVTIIGDINK | 0.619 ± 0.016
RSTGFHRVSCGI | 0.72 ± 0.06
RSTTRSTLSLHV | 0.701 ± 0.021
RSVIEHKMRKKR | 0.682 ± 0.026
RTAYLLRCLTTD | 0.681 ± 0.026
RTGKVKNINISI | 0.71064 ± 0.00038
RTHRKNRRYKKN | 0.639 ± 0.0072
RTKLFGIVGRQL | 0.659 ± 0.036

Sequence | protein stability index
RTLWGYCPRSPL | 0.718 ± 0.021
RTRKARTHGRAQ | 0.679 ± 0.0092
RTSEAGKQHEWK | 0.695 ± 0.0074
RTSKSCVEFTMG | 0.661 ± 0.011
RTTAGINAFPGV | 0.6184 ± 0.0051
RTTSFVLSYRRE | 0.66 ± 0.019
RTWDNTRDLDEL | 0.656 ± 0.019
RVCCGVKDSEES | 0.619 ± 0.0062
RVCFSLGAEFSF | 0.665 ± 0.055
RVCVERFDSLTL | 0.733 ± 0.08
RVDAWLEGKTVR | 0.734 ± 0.02
RVGAVCWSIGLL | 0.68 ± 0.03
RVGWCGGGRGGR | 0.658 ± 0.048
RVGWCPCTGDRR | 0.663 ± 0.019
RVHRSVVGYRRC | 0.611 ± 0.025
RVKMEFGRYRIF | 0.52266 ± 0.0005
RVKRTGLGVWGF | 0.649 ± 0.033
RVLCLCATSKSR | 0.672 ± 0.016
RVPGGLPCRPSL | 0.775 ± 0.041
RVQLPSRITQKA | 0.596 ± 0.023
RVQMTTHGCLIS | 0.766 ± 0.15
RVRLSLDSPLGL | 0.684 ± 0.044
